Non-standard residues stand in square brackets, D forms with d. No end group written: not given here.
Assays:
[1] = target: PBX proteins of human cancer cell lines (A549, LNCaP, SK-OV3, A498, J82) (human (human cell lines)); assay: cell-based or functional assay
[2] = target: T1, PBX proteins of murine B16 melanoma cells (mouse (murine B16 melanoma cells), UniProt P41778 1-430, limits assumed); assay: cell-based or functional assay
T1 sequence (looked up): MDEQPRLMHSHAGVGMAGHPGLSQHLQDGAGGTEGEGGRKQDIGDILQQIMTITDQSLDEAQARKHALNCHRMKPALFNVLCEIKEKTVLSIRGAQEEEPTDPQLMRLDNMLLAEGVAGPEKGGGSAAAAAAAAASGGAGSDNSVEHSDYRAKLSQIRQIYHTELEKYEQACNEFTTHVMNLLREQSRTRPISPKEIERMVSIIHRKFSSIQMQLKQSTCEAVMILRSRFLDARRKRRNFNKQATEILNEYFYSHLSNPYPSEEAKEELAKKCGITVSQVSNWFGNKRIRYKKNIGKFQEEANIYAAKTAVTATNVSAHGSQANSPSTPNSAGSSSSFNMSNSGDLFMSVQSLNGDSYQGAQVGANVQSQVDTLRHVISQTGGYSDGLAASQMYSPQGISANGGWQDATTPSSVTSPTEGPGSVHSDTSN

- IC50 (µM), MTT assay, A498 [1]: 24 µM
- IC50 (µM), MTT assay, A549 [1]: 19 µM
- IC50 (µM), MTT assay, J82 [1]: 22 µM
- IC50 (µM), MTT assay, LNCaP [1]: 21 µM
- IC50 (µM), MTT assay, SK-OV3 [1]: 22 µM
- IC50 (µM), MTT assay, B16F10 [2]: 20 µM
B1: HXArg9(2D) (peptide)
peptide: [dW]YPWMKKHHRRRRRRRR[dR]
